Reference: patent publication US20210332135A1
pEC50: −log10 of the molar value.

These substances were tested against recombinant CD47 extracellur domain protein (UniProt Q08722) (assay: ELISA on recombinant CD47 extracellular domain protein).
recombinant CD47 extracellur domain protein, sequence (Q08722 19-139 limits assumed): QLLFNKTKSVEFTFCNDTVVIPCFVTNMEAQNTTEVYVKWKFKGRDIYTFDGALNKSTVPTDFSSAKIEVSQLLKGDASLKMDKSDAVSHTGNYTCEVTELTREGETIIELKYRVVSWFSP

Substance | pEC50
CV1, high affinity SIRPa mutant (positive control) | > 10.00
S012 (binding domain of human SIRPa, Gene 012, on human kappa light chain, co-expressed with an empty IgG1 heavy chain) (from UniProt P01834 1-107; P01857 1-330) | < 7.00
S007 (binding domain of human SIRPa, Gene 007, on human kappa light chain, co-expressed with an empty IgG1 heavy chain) (from UniProt P01834 1-107; P01857 1-330) | < 7.00

These substances were tested against recombinant PD-L1 extracellur domain protein (UniProt Q9NZQ7) (assay: ELISA on recombinant PD-L1 extracellular domain protein).
recombinant PD-L1 extracellur domain protein, sequence (Q9NZQ7 19-238 limits assumed): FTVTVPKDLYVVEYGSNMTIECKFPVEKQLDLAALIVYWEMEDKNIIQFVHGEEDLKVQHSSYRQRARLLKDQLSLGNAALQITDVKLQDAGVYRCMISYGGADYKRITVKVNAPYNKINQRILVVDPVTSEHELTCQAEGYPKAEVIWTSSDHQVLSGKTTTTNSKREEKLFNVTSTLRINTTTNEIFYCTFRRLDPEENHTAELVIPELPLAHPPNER

Substance | pEC50
HAC, high affinity PD-1 mutant (positive control) | > 10.00
P048 (IgV domain of PD-1, Gene 048, on kappa chain, co-expressed with an empty IgG1 heavy chain) (from UniProt P01857 1-330) | < 7.00
P050 (IgV domain of PD-1, lower affinity L128R mutant, Gene 050, on kappa chain, co-expressed with an empty IgG1 heavy chain) (from UniProt P01857 1-330) | < 7.00
